Experimental data as given in paper PMC4434903.

Key:
[1] = target: full length TOP1-His (UniProt Q94AM1); assay: SEC; Superdex 200 gel filtration of cobalt-column purified His-tagged protein, no DTT; apparent MW by interpolation with conalbumin and aldolase; peak areas at A280
[2] = target: T1, TOP2 fused to the N-terminal or the C-terminal half of Renilla luciferase, Q949P2; assay: split reporter (BiFC, NanoBiT); split Renilla luciferase complementation in Arabidopsis protoplasts co-transformed with NLuc and CLuc fusions; luminescence read 12-16 h after transformation; with or without 100 or 200 uM SA (3 h); details: remark: other sources report otherwise
T1 chain: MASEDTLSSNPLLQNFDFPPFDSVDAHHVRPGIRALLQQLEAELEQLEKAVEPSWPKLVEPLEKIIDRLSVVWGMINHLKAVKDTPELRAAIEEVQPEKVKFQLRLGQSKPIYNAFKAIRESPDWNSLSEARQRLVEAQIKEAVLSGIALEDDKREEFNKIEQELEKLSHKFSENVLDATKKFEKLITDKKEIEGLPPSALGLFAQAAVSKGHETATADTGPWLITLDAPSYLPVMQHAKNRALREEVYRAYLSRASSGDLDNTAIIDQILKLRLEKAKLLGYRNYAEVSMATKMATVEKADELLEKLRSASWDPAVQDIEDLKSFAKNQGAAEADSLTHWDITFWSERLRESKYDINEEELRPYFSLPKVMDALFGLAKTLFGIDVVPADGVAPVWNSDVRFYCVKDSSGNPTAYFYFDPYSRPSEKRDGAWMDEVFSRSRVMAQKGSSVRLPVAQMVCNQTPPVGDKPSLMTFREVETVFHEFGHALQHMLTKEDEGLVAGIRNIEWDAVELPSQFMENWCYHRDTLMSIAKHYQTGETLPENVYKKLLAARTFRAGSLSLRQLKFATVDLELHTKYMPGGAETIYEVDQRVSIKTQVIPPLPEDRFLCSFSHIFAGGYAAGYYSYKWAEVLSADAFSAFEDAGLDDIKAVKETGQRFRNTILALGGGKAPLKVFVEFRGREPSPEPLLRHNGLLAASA

[3] = target: T2, full length TOP2-His, Q949P2; assay: SEC; Superdex 200 gel filtration of cobalt-column purified His-tagged protein, no DTT; apparent MW by interpolation with conalbumin and aldolase; peak areas at A280; details: remark: other sources report otherwise
T2 chain: T1 chain

“full length TOP1-His (from UniProt Q94AM1 83-791) (enzyme)” was tested, and the stoichiometry N [1] was 2.

B1: TOP2 fused to the N-terminal or the C-terminal half of Renilla luciferase, Q949P2 1-701 (enzyme)
chain: T1 chain
For B1, the fold luminescence intensity over TOP1-TOP1 or TOP1-TOP2 [2] was 3.4 fold.

B2: full length TOP2-His, Q949P2 1-701 (enzyme)
chain: T1 chain
B2 showed a stoichiometry N [3] of 2.
